Reference: patent US20160114000A1 (Merck Sharp & Dohme, published 2016)
*1 amine or outer side, *2 acyl side, *3 side chain or, on linkers, in order; H or OH if unused. Where no end group is shown, it is not given here. Side-chain parts run from the residue outwards. [ ]: non-standard residue; d: D form. The star is where a group is joined. γGlu = O=C(O)[C@H](CCC(=O)[*:2])N[*:1]; Palmitoyl = CCCCCCCCCCCCCCCC(=O)*; Ac4c = NC1(C(=O)O)CCC1

B1: Co-agonist Peptide 8 (peptide)
peptide: H[dS]QGTFTSDK([γGlu-γGlu-Palmitoyl])SKYLEARAAQDFVQWLLDT-NH2
modifications: N-terminus assumed
SMILES: CCCCCCCCCCCCCCCC(=O)N[C@@H](CCC(=O)N[C@@H](CCC(=O)NCCCC[C@H](NC(=O)[C@H](CC(=O)O)NC(=O)[C@H](CO)NC(=O)[C@@H](NC(=O)[C@H](Cc1ccccc1)NC(=O)[C@@H](NC(=O)CNC(=O)[C@H](CCC(N)=O)NC(=O)[C@@H](CO)NC(=O)[C@@H](N)Cc1c[nH]cn1)[C@@H](C)O)[C@@H](C)O)C(=O)N[C@@H](CO)C(=O)N[C@@H](CCCCN)C(=O)N[C@@H](Cc1ccc(O)cc1)C(=O)N[C@@H](CC(C)C)C(=O)N[C@@H](CCC(=O)O)C(=O)N[C@@H](C)C(=O)N[C@@H](CCCNC(=N)N)C(=O)N[C@@H](C)C(=O)N[C@@H](C)C(=O)N[C@@H](CCC(N)=O)C(=O)N[C@@H](CC(=O)O)C(=O)N[C@@H](Cc1ccccc1)C(=O)N[C@H](C(=O)N[C@@H](CCC(N)=O)C(=O)N[C@@H](Cc1c[nH]c2ccccc12)C(=O)N[C@@H](CC(C)C)C(=O)N[C@@H](CC(C)C)C(=O)N[C@@H](CC(=O)O)C(=O)N[C@H](C(N)=O)[C@@H](C)O)C(C)C)C(=O)O)C(=O)O
B2: Co-agonist Peptide 12 (peptide)
peptide: HXQGTFTSDXSKYLDARAAQDFVQWLLDT
modifications: D-Ser at 2; para-aminomethyl phenylalanine (pAF) at 10 conjugated to γEγE-C16 (palmitoyl); C-terminal amide
B3: Co-agonist Peptide 11 (peptide)
peptide: H[dS]QGTFTSDK([γGlu-γGlu-Palmitoyl])SLYLDERAAQDFVQWLLDT-NH2
modifications: N-terminus assumed
SMILES: CCCCCCCCCCCCCCCC(=O)N[C@@H](CCC(=O)N[C@@H](CCC(=O)NCCCC[C@H](NC(=O)[C@H](CC(=O)O)NC(=O)[C@H](CO)NC(=O)[C@@H](NC(=O)[C@H](Cc1ccccc1)NC(=O)[C@@H](NC(=O)CNC(=O)[C@H](CCC(N)=O)NC(=O)[C@@H](CO)NC(=O)[C@@H](N)Cc1c[nH]cn1)[C@@H](C)O)[C@@H](C)O)C(=O)N[C@@H](CO)C(=O)N[C@@H](CC(C)C)C(=O)N[C@@H](Cc1ccc(O)cc1)C(=O)N[C@@H](CC(C)C)C(=O)N[C@@H](CC(=O)O)C(=O)N[C@@H](CCC(=O)O)C(=O)N[C@@H](CCCNC(=N)N)C(=O)N[C@@H](C)C(=O)N[C@@H](C)C(=O)N[C@@H](CCC(N)=O)C(=O)N[C@@H](CC(=O)O)C(=O)N[C@@H](Cc1ccccc1)C(=O)N[C@H](C(=O)N[C@@H](CCC(N)=O)C(=O)N[C@@H](Cc1c[nH]c2ccccc12)C(=O)N[C@@H](CC(C)C)C(=O)N[C@@H](CC(C)C)C(=O)N[C@@H](CC(=O)O)C(=O)N[C@H](C(N)=O)[C@@H](C)O)C(C)C)C(=O)O)C(=O)O
B4: Co-agonist Peptide 3 (peptide)
peptide: H[dS]QGTFTSDK([γGlu-γGlu-Palmitoyl])SKYLDVRAAQDFVQWLLDT-NH2
modifications: N-terminus assumed
SMILES: CCCCCCCCCCCCCCCC(=O)N[C@@H](CCC(=O)N[C@@H](CCC(=O)NCCCC[C@H](NC(=O)[C@H](CC(=O)O)NC(=O)[C@H](CO)NC(=O)[C@@H](NC(=O)[C@H](Cc1ccccc1)NC(=O)[C@@H](NC(=O)CNC(=O)[C@H](CCC(N)=O)NC(=O)[C@@H](CO)NC(=O)[C@@H](N)Cc1c[nH]cn1)[C@@H](C)O)[C@@H](C)O)C(=O)N[C@@H](CO)C(=O)N[C@@H](CCCCN)C(=O)N[C@@H](Cc1ccc(O)cc1)C(=O)N[C@@H](CC(C)C)C(=O)N[C@@H](CC(=O)O)C(=O)N[C@H](C(=O)N[C@@H](CCCNC(=N)N)C(=O)N[C@@H](C)C(=O)N[C@@H](C)C(=O)N[C@@H](CCC(N)=O)C(=O)N[C@@H](CC(=O)O)C(=O)N[C@@H](Cc1ccccc1)C(=O)N[C@H](C(=O)N[C@@H](CCC(N)=O)C(=O)N[C@@H](Cc1c[nH]c2ccccc12)C(=O)N[C@@H](CC(C)C)C(=O)N[C@@H](CC(C)C)C(=O)N[C@@H](CC(=O)O)C(=O)N[C@H](C(N)=O)[C@@H](C)O)C(C)C)C(C)C)C(=O)O)C(=O)O
B5: Co-agonist Peptide 9 (peptide)
peptide: HXQGTXTSDKSKYLDERAAQDFVQWLLDT
modifications: D-Ser at 2; p-fluorophenylalanine (pFF) at 6; Lys 10 conjugated to γEγE-C16 (palmitoyl); C-terminal amide
B6: Co-agonist Peptide 13 (peptide)
peptide: H[Ac4c]QGTFTSDK([γGlu-γGlu-Palmitoyl])SKYLDERAAQDFVQWLLDT-NH2
modifications: N-terminus assumed
SMILES: CCCCCCCCCCCCCCCC(=O)N[C@@H](CCC(=O)N[C@@H](CCC(=O)NCCCC[C@H](NC(=O)[C@H](CC(=O)O)NC(=O)[C@H](CO)NC(=O)[C@@H](NC(=O)[C@H](Cc1ccccc1)NC(=O)[C@@H](NC(=O)CNC(=O)[C@H](CCC(N)=O)NC(=O)C1(NC(=O)[C@@H](N)Cc2c[nH]cn2)CCC1)[C@@H](C)O)[C@@H](C)O)C(=O)N[C@@H](CO)C(=O)N[C@@H](CCCCN)C(=O)N[C@@H](Cc1ccc(O)cc1)C(=O)N[C@@H](CC(C)C)C(=O)N[C@@H](CC(=O)O)C(=O)N[C@@H](CCC(=O)O)C(=O)N[C@@H](CCCNC(=N)N)C(=O)N[C@@H](C)C(=O)N[C@@H](C)C(=O)N[C@@H](CCC(N)=O)C(=O)N[C@@H](CC(=O)O)C(=O)N[C@@H](Cc1ccccc1)C(=O)N[C@H](C(=O)N[C@@H](CCC(N)=O)C(=O)N[C@@H](Cc1c[nH]c2ccccc12)C(=O)N[C@@H](CC(C)C)C(=O)N[C@@H](CC(C)C)C(=O)N[C@@H](CC(=O)O)C(=O)N[C@H](C(N)=O)[C@@H](C)O)C(C)C)C(=O)O)C(=O)O
B7: Co-agonist Peptide 10 (peptide)
peptide: HXQGTFTSDKSKYLDERAAQDFVQWLXDT
modifications: D-Ser at 2; Lys 10 conjugated to γEγE-C16 (palmitoyl); methionine sulfone at 27; C-terminal amide

What was measured:
[1] = tested on: diet-induced obese (DIO) mice (strain C57Bl6/NTac); assay: Cumulative body weight change (grams) in DIO mice, Example 18; type: in vivo; details: 9 nmol/kg daily, day 9
Procedure: Mice were administered a vehicle control or a dose of a peptide daily for nine days. […] The peptide of SEQ ID NO: 9 was administered at doses of 9 and 25 nmol/kg. Cumulative body weight change (grams) was measured each day of the study except on day 3. Results are shown in FIG. 1 and are expressed as mean±SEM.

[2] = tested on: DIO mice (strain C57Bl6/NTac); assay: Ambient glucose levels in DIO mice, Example 21; type: in vivo; details: 9 nmol/kg
Procedure: In addition to cumulative body weight change, ambient glucose levels of the DIO mice (strain C57Bl6/NTac) were measured periodically throughout the study.

human GCGR = biological target: T1, human GCGR (Homo sapiens, UniProt P47871); assay: cAMP protocol, cells expressing human GCGR; type: cell-based; details: ratio of EC50 at human GCGR to EC50 at human GLP1R
T1 construct: expressed in transfected cells; grown under Geneticin and Hygromycin selection
T1 sequence (P47871 26-477): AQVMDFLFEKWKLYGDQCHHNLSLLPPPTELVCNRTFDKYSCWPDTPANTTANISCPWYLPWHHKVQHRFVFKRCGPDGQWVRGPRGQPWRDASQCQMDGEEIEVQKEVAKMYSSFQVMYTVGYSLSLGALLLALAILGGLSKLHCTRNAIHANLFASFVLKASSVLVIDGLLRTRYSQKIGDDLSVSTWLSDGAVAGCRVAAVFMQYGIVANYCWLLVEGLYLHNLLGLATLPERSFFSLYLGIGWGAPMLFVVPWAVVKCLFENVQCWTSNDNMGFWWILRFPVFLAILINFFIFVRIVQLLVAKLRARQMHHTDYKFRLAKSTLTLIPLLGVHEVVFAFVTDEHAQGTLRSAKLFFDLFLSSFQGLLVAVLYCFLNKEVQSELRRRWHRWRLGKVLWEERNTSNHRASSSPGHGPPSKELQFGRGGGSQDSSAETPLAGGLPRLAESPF
Procedure: The cAMP protocol was as follows.
Peptides were dissolved in 100% DMSO and serially diluted to generate 11 point titrations. The peptide solutions were then transferred into 384-well assay plates (150 nL/well). Assay ready frozen cells expressing human GLP-1R or human GCGR were suspended in growth media consisting of DMEM/F12 medium (GIBCO), 10% FBS (GIBCO), lx P/S (GIBCO), 800 μg/mL Geneticin (GIBCO), and 300 μg/mL Hygromycin (Invitrogen). Cells were then diluted in assay buffer consisting of PBS (GIBCO), 7.5% BSA (Perkin Elmer), 100 μM RO 20-1724 (Sigma), and 20% human serum (MP Biomedical). The cell suspensions (15 μL) were then added to the assay plates containing the peptide solutions (30,000 cells/well for human GCGR; 20,000 cells/well for GLP1R). The cells were incubated for 1 hour at room temperature in the dark. Production of cAMP was determined using HitHunter™ cAMPXS kits (DiscoverX). ED buffer (20 μL) was then added to each well and the plates were incubated for 1 hour at room temperature in the dark. Subsequently, EA buffer (20 μL) was added to each well, and the plates were incubated for 1-18 hours at room temperature in the dark. Luminescence was measured using an EnVision Multilabel plate reader (Perkin Elmer). EC50 values were calculated using ADA data analyzer software.

[3] = tested on: DIO mice (strain C57Bl6/NTac); assay: Body weight change (%) relative to vehicle in DIO mice, second study, Example 19; type: in vivo; details: eight days
Procedure: In addition, the peptide of SEQ ID NO: 8 was administered at 15 nmol/kg, while the peptide of SEQ ID NOs: 10 and 11 were administered at 3 nmol/kg. Body weight was measured daily for eight days and body weight change is expressed as percent relative to vehicle (FIG. 2).

human GLP-1 receptor = human GLP-1 receptor (human, UniProt P43220 24-463); assay: cell-based or functional assay
human glucagon receptor = human glucagon receptor (human, UniProt P47871 26-477); assay: cell-based or functional assay
Sequence of human glucagon receptor (P47871 26-477): as above

Row | Molecule | weight loss [1] | decrease in ambient glucose compared to vehicle ([2]; day 7 of dosing) | hGCGR/hGLP1R (hTone) (human GCGR) | weight loss, percent relative to vehicle ([3]; 9 nmol/kg daily) | decrease in ambient glucose compared to vehicle ([2]; day 9) | weight loss, percent relative to vehicle ([3]; 15 nmol/kg daily) | GLPR1 EC50 (nM) human; cAMP production (HitHunter cAMPXS), 20% human serum (human GLP-1 receptor) | GCGR EC50 (nM) human; cAMP production (HitHunter cAMPXS), 20% human serum (human glucagon receptor) | hGCGR/hGLP1R (hTone): ratio of cAMP EC50 at human GCGR to cAMP EC50 at human GLP1R (human glucagon receptor)
1 | CCCCCCCCCCCCCCCC(=O)N[C@@H](CCC(=O)NCCCC[C@H](NC(=O)[C@H](CC(=O)O)NC(=O)[C@H](CO)NC(=O)[C@@H](NC(=O)[C@H](Cc1ccccc1)NC(=O)[C@@H](NC(=O)CNC(=O)[C@H](CCC(N)=O)NC(=O)[C@@H](CO)NC(=O)[C@@H](N)Cc1c[nH]cn1)[C@@H](C)O)[C@@H](C)O)C(=O)N[C@@H](CO)C(=O)N[C@@H](CCCCN)C(=O)N[C@@H](Cc1ccc(O)cc1)C(=O)N[C@@H](CC(C)C)C(=O)N[C@@H](CC(=O)O)C(=O)N[C@@H](C)C(=O)N[C@@H](CCCNC(=N)N)C(=O)N[C@@H](C)C(=O)N[C@@H](C)C(=O)N[C@@H](CCC(N)=O)C(=O)N[C@@H](CC(=O)O)C(=O)N[C@@H](Cc1ccccc1)C(=O)N[C@H](C(=O)N[C@@H](CCC(N)=O)C(=O)N[C@@H](Cc1c[nH]c2ccccc12)C(=O)N[C@@H](CC(C)C)C(=O)N[C@@H](CC(C)C)C(=O)N[C@@H](CC(=O)O)C(=O)N[C@H](C(N)=O)[C@@H](C)O)C(C)C)C(=O)O [SEQ ID NO: 6] | 10.5 grams | -60 mg/dL | 0.88 | approximately 20% | – | – | – | – | –
2 | CCCCCCCCCCCCCCCC(=O)N[C@@H](CCC(=O)N[C@@H](CCC(=O)NCCCC[C@H](NC(=O)[C@H](CC(=O)O)NC(=O)[C@H](CO)NC(=O)[C@@H](NC(=O)[C@H](Cc1ccccc1)NC(=O)[C@@H](NC(=O)CNC(=O)[C@H](CCC(N)=O)NC(=O)[C@@H](CO)NC(=O)[C@@H](N)Cc1c[nH]cn1)[C@@H](C)O)[C@@H](C)O)C(=O)N[C@@H](CO)C(=O)N[C@@H](CCCCN)C(=O)N[C@@H](Cc1ccc(O)cc1)C(=O)N[C@@H](CC(C)C)C(=O)N[C@@H](CC(=O)O)C(=O)N[C@H](C(=O)N[C@@H](CCCNC(=N)N)C(=O)N[C@@H](C)C(=O)N[C@@H](C)C(=O)N[C@@H](CCC(N)=O)C(=O)N[C@@H](CC(=O)O)C(=O)N[C@@H](Cc1ccccc1)C(=O)N[C@H](C(=O)N[C@@H](CCC(N)=O)C(=O)N[C@@H](Cc1c[nH]c2ccccc12)C(=O)N[C@@H](CC(C)C)C(=O)N[C@@H](CC(C)C)C(=O)N[C@@H](CC(=O)O)C(=O)N[C@H](C(N)=O)[C@@H](C)O)C(C)C)C(C)C)C(=O)O)C(=O)O [SEQ ID NO: 8] | 8 grams | – | 0.60 | approximately 17% | -72 mg/dL | approximately 25% | – | – | –
3 | B1 | – | – | – | – | – | – | 0.02 nM | 0.02 nM | 0.9 ratio
4 | B2 | – | – | – | – | – | – | 0.05 nM | 0.05 nM | 0.98 ratio
5 | B3 | – | – | – | – | – | – | 0.06 nM | 0.06 nM | 0.91 ratio
6 | B4 | – | – | – | – | – | – | 0.13 nM | 0.08 nM | 0.6 ratio
7 | B5 | – | – | – | – | – | – | 0.06 nM | 0.05 nM | 0.93 ratio
8 | B6 | – | – | – | – | – | – | 0.05 nM | 0.06 nM | 1.25 ratio
9 | B7 | – | – | – | – | – | – | 0.02 nM | 0.02 nM | 1.1 ratio
